The source of these data is the supplement of paper PMC11246515.

± gives the standard deviation of the averaged measurements.

The nature of this series: total protein half-life in vivo (active degradation + dilution); higher = more stable protein.
The mark [1] stands for this setting: E. coli NCM3722 delta-clpP delta-lon delta-hslV, growth: N-lim chemostat, doubling time 6 h.
Where [2] appears, read: E. coli NCM3722 delta-clpP, growth: N-lim chemostat, doubling time 6 h.
Where [3] appears, read: E. coli NCM3722 delta-hslV, growth: N-lim chemostat, doubling time 6 h.
Where [4] appears, read: E. coli NCM3722 delta-lon, growth: N-lim chemostat, doubling time 6 h.
The mark [5] stands for this setting: E. coli NCM3722 delta-smpB, growth: N-lim chemostat, doubling time 6 h.
Setting [6] is: wild type E. coli NCM3722, growth: C-lim chemostat, doubling time 3 h.
Where [7] appears, read: wild type E. coli NCM3722, growth: C-lim chemostat, doubling time 6 h.
The mark [8] stands for this setting: wild type E. coli NCM3722, growth: C-lim chemostat, doubling time 12 h.
Setting [9] is: wild type E. coli NCM3722, growth: N-lim chemostat, doubling time 6 h.
The mark [10] stands for this setting: wild type E. coli NCM3722, growth: N-lim chemostat, doubling time 12 h.
Setting [11] is: wild type E. coli NCM3722, growth: P-lim chemostat, doubling time 6 h.
Where [12] appears, read: wild type E. coli NCM3722, growth: P-lim chemostat, doubling time 12 h.

Regarding “MKTLSPAVITLLWRQDAAEFYFSRLSHLPWAMLLHSGYADHPYSRFDIVVAEPICTLTTFGKETVVSESEKRTTTTDDPLQVLQQVLDRADIRPTHNEDLPFQGGALGLFGYDLGRRFESLPEIAEQDIVLPDMAVGIYDWALIVDHQRHTVSLLSHNDVNARRAWLESQQFSPQEDFTLTSDWQSNMTREQYGEKFRQVQEYLHSGDCYQVNLAQRFHATYSGDEWQAFLQLNQANRAPFSAFLRLEQGAILSLSPERFILCDNSEIQTRPIKGTLPRLPDPQEDSKQAVKLANSAKDRAENLMIVDLMRNDIGRVAVAGSVKVPELFVVEPFPAVHHLVSTITAQLPEQLHASDLLRAAFPGGSITGAPKVRAMEIIDELEPQRRNAWCGSIGYLSFCGNMDTSITIRTLTAINGQIFCSAGGGIVADSQEEAEYQETFDKVNRILKQLEK”, the “total protein half-life in vivo” value under setting [1] was determined as 5 ± 0.22 h; the “total protein half-life in vivo” value under setting [2] came to 4.56 ± 0.35 h; the “total protein half-life in vivo” value under setting [3] turned out to be 4.358 ± 0.037 h; the “total protein half-life in vivo” value under setting [4] stood at 4.5 ± 0.1 h; the “total protein half-life in vivo” value under setting [5] turned out to be 4.47 ± 0.21 h; the “total protein half-life in vivo” value under setting [6] is 3.57 ± 0.57 h. For the same sequence, the “total protein half-life in vivo” value under setting [7] came to 5.38 ± 0.12 h; the “total protein half-life in vivo” value under setting [8] was determined as 11 ± 0.69 h; the “total protein half-life in vivo” value under setting [9] amounted to 4.31 ± 0.16 h; the “total protein half-life in vivo” value under setting [10] is 7.82 ± 0.28 h; the “total protein half-life in vivo” value under setting [11] was 6.33 ± 0.27 h; the “total protein half-life in vivo” value under setting [12] came out at 12.2 ± 1.5 h.
Regarding “MPKPGILKSKSMFCVIYRSSKRDQTYLYVEKKDDFSRVPEELMKGFGQPQLAMILPLDGRKKLVNADIEKVKQALTEQGYYLQLPPPPEDLLKQHLSVMGQKTDDTNK [P0AB43]”, the “total protein half-life in vivo” value was 4.94 ± 0.22 h under setting [1]; 4.28 ± 0.62 h under setting [2]; 3.56 ± 0.33 h under setting [3]; 4.78 ± 0.62 h under setting [4]; 3.88 ± 0.55 h under setting [5]; 2.71 ± 0.15 h under setting [6]. Also, the “total protein half-life in vivo” value by setting is: under setting [7], 4.59 ± 0.29 h; under setting [8], 8.2 ± 0.32 h; under setting [9], 3.5 h; under setting [10], 5.72 ± 0.24 h; under setting [11], 4.48 ± 0.068 h; under setting [12], 8.702 ± 0.013 h.
In the case of “MKNFEVLQPLQNSLSGLPLWVSERILQQINQLTHYEPVIGIMGKTGAGKSSLCNALFAGEVSPVSDVAACTRDPLRFRLQIGEHFMTIVDLPGVGESGVRDTEYAALYREQLPRLDLILWLIKADDRALATDEHFYRQVIGEAYRHKMLFVISQSDKAEPTSGGNILSTEQKQNISRKICLLHELFQPVHPVCAVSVRLQWGLRVMAERMIKCLPREASSPVVALLQHPFRTTVAREQARDDFGETVGAILDTVSTFPLIPAPVRTIIQAVRSSVVSVARAVWDFFF”, the “total protein half-life in vivo” value under setting [3] turned out to be 3.97 h and the “total protein half-life in vivo” value under setting [8] stood at 10.6 h.
As to “MESLTLQPIARVDGTINLPGSKSVSNRALLLAALAHGKTVLTNLLDSDDVRHMLNALTALGVSYTLSADRTRCEIIGNGGPLHAEGALELFLGNAGTAMRPLAAALCLGSNDIVLTGEPRMKERPIGHLVDALRLGGAKITYLEQENYPPLRLQGGFTGGNVDVDGSVSSQFLTALLMTAPLAPEDTVIRIKGDLVSKPYIDITLNLMKTFGVEIENQHYQQFVVKGGQSYQSPGTYLVEGDASSASYFLAAAAIKGGTVKVTGIGRNSMQGDIRFADVLEKMGATICWGDDYISCTRGELNAIDMDMNHIPDAAMTIATAALFAKGTTTLRNIYNWRVKETDRLFAMATELRKVGAEVEEGHDYIRITPPEKLNFAEIATYNDHRMAMCFSLVALSDTPVTILDPKCTAKTFPDYFEQLARISQAA [P0A6D3]”, the “total protein half-life in vivo” value is, setting by setting: under setting [1], 5.15 ± 0.18 h; under setting [2], 5.52 ± 1.1 h; under setting [3], 4.53 ± 0.15 h; under setting [4], 5.22 ± 0.56 h; under setting [5], 4.53 ± 0.049 h; under setting [6], 3.1 ± 0.1 h. Moreover, the “total protein half-life in vivo” value is, setting by setting: under setting [7], 5.96 ± 0.62 h; under setting [8], 11.3 ± 0.63 h; under setting [9], 4.45 ± 0.31 h; under setting [10], 7.534 ± 0.05 h; under setting [11], 5.98 ± 0.078 h; under setting [12], 12.1 ± 1.5 h.
“MSETAKKVIVGMSGGVDSSVSAWLLQQQGYQVEGLFMKNWEEDDGEEYCTAAADLADAQAVCDKLGIELHTVNFAAEYWDNVFELFLAEYKAGRTPNPDILCNKEIKFKAFLEFAAEDLGADYIATGHYVRRADVDGKSRLLRGLDSNKDQSYFLYTLSHEQIAQSLFPVGELEKPQVRKIAEDLGLVTAKKKDSTGICFIGERKFREFLGRYLPAQPGKIITVDGDEIGEHQGLMYHTLGQRKGLGIGGTKEGTEEPWYVVDKDVENNILVVAQGHEHPRLMSVGLIAQQLHWVDREPFTGTMRCTVKTRYRQTDIPCTVKALDDDRIEVIFDEPVAAVTPGQSAVFYNGEVCLGGGIIEQRLPLPV”: the “total protein half-life in vivo” value turned out to be 4.81 ± 0.17 h under setting [1]; 4.73 ± 0.56 h under setting [2]; 4.73 ± 0.06 h under setting [3]; 5.33 ± 0.43 h under setting [4]; 4.71 ± 0.32 h under setting [5]; 2.89 ± 0.46 h under setting [6]. Also, the “total protein half-life in vivo” value was determined as 7.28 ± 0.86 h under setting [7]; 10.4 ± 1.7 h under setting [8]; 4.77 ± 0.39 h under setting [9]; 8.691 ± 0.075 h under setting [10]; 5.5 ± 0.061 h under setting [11]; 12 ± 1.4 h under setting [12].
In the case of “MSEKYIVTWDMLQIHARKLASRLMPSEQWKGIIAVSRGGLVPGALLARELGIRHVDTVCISSYDHDNQRELKVLKRAEGDGEGFIVIDDLVDTGGTAVAIREMYPKAHFVTIFAKPAGRPLVDDYVVDIPQDTWIEQPWDMGVVFVPPISGR [P0A9M5]”, the “total protein half-life in vivo” value is, setting by setting: under setting [1], 4.63 ± 0.2 h; under setting [2], 3.87 ± 0.29 h; under setting [3], 4.153 ± 0.02 h; under setting [4], 4.37 ± 0.52 h; under setting [5], 4.28 ± 0.093 h; under setting [6], 3 ± 0.046 h. For the same sequence, the “total protein half-life in vivo” value worked out at 5.55 ± 0.23 h under setting [7]; 9.92 ± 0.83 h under setting [8]; 4.16 ± 0.19 h under setting [9]; 6.73 ± 0.53 h under setting [10]; 6.07 ± 0.34 h under setting [11]; 13.99 ± 0.054 h under setting [12].
Take “MSITLSDSAAARVNTFLANRGKGFGLRLGVRTSGCSGMAYVLEFVDEPTPEDIVFEDKGVKVVVDGKSLQFLDGTQLDFVKEGLNEGFKFTNPNVKDECGCGESFHV [P0AAC8]”: the “total protein half-life in vivo” value under setting [1] is 3.72 ± 0.52 h; the “total protein half-life in vivo” value under setting [2] was 2.47 ± 1.5 h; the “total protein half-life in vivo” value under setting [3] stood at 0.964 ± 0.11 h; the “total protein half-life in vivo” value under setting [4] is 2.06 ± 0.1 h; the “total protein half-life in vivo” value under setting [5] amounted to 0.889 ± 0.077 h; the “total protein half-life in vivo” value under setting [6] worked out at 1.2 ± 0.086 h. In addition, the “total protein half-life in vivo” value reads like this: under setting [7], 1.62 ± 0.07 h; under setting [8], 2.08 ± 0.36 h; under setting [9], 1.14 ± 0.11 h; under setting [10], 1.26 ± 0.022 h; under setting [11], 1.36 ± 0.36 h; under setting [12], 2.42 ± 0.75 h.
Take “MPAPVVLILAAGRGECFLASGGNTHKCIGWRQSPEVAPYRWPFEENGRTFDLAIEPQITTNDLRLMLRLALAGGGITIATQETFRPYIESGKLVSLLDDFLPQFPGFYLYFPQRRNIAPKLRALIDYVKEWRQQLA”: the “total protein half-life in vivo” value under setting [1] came to 4.63 h.
